Assays:
[1] = molecular target: T1, hGas6-FH-L314A, Q315A, P316A (alanine substitution variant) (human, UniProt Q14393 1-678); assay: ELISA, variant captured by anti-FLAG, biotinylated antibody
T1 construct: Limits of the deletion derived as for hGas6-FH; also called alanine variant
T1 chain: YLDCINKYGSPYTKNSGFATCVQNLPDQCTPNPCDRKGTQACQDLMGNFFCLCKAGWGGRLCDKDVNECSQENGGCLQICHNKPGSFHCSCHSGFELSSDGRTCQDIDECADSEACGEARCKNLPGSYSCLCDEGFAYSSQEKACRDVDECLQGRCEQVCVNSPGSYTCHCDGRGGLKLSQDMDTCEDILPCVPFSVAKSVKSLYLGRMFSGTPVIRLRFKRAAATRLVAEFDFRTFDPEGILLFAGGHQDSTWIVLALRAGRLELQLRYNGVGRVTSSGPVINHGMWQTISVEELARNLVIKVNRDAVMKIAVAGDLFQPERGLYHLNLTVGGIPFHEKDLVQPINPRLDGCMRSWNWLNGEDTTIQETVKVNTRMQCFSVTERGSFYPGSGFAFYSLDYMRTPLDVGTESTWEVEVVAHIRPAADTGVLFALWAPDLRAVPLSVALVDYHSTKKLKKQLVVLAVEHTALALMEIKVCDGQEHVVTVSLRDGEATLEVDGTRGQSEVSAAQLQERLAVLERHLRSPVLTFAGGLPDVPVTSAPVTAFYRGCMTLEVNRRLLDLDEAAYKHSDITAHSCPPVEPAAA
Procedure: First, 2 μg/mL anti-FLAG antibody [Monoclonal ANTI-FLAG M2 antibody produced in mouse (manufactured by Sigma-Aldrich Co. LLC) diluted with PBS (manufactured by Nacalai Tesque, Inc.)] was dispensed at 50 μL/well to a 96-well plate for ELISA (manufactured by Nalge Nunc International), and the plate was left standing overnight at 4° C. for adsorption. After removal of the immobilization solution, 1% BSA-PBS (manufactured by Nacalai Tesque, Inc.) was added thereto at 300 μL/well, and the plate was left standing at room temperature for 1 hour for blocking and washed five times with Tween 20-PBS (manufactured by Wako Pure Chemical Industries Ltd.).
Each antibody solution was dispensed thereto at 50 μL/well, and the plate was left standing at room temperature for 1 hour. This plate was washed five times with Tween 20-PBS. Then, Streptavidin HRP Conjugate (manufactured by R&D Systems, Inc.) diluted 200-fold with 1% BSA-PBS was dispensed thereto at 50 μL/well, and the plate was left standing at room temperature for 1 hour. This plate was washed five times with Tween 20-PBS, and TMB (manufactured by Sigma-Aldrich Co. LLC) was added thereto at 50 μL/well and reacted. […] The absorbance at a sample wavelength of 450 nm and a reference wavelength of 570 nm (450 nm-570 nm) was measured using a plate reader.

[2] = molecular target: T2, human protein S (derived from human serum; Enzyme Research Laboratories) (human, UniProt P07225 42-676); assay: ELISA: human protein S coated directly on the plate (2 µg/mL); biotinylated test antibody; streptavidin-HRP/TMB (Example 6, method of Example 5(5)) [F]
T2 construct: Homologue of Gas6 used as specificity control
T2 sequence (looked up): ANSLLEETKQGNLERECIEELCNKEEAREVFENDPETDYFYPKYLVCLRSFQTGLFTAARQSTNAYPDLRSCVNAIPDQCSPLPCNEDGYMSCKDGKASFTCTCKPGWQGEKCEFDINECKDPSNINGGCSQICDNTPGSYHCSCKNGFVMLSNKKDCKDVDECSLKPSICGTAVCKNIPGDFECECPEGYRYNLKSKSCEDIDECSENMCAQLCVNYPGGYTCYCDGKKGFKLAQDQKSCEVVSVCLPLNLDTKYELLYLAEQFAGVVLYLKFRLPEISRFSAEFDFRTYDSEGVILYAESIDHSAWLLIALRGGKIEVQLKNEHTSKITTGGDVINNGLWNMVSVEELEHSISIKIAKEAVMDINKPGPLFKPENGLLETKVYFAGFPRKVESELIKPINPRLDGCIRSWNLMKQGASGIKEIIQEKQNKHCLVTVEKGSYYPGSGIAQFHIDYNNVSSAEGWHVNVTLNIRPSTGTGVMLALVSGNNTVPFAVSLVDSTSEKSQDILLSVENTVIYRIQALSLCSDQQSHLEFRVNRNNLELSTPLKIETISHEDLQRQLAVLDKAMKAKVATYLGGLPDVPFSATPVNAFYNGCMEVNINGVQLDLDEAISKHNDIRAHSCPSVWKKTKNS
Procedure: First, a 2 μg/mL solution of the antigen (prepared from each antigen with PBS (manufactured by Nacalai Tesque, Inc.)) was dispensed at 50 μL/well to a 96-well plate for ELISA (manufactured by Nalge Nunc International), and the plate was left standing overnight at 4° C. for adsorption. The plate was washed five times with Tween 20-PBS. Then, 1% BSA-PBS (manufactured by Nacalai Tesque, Inc.) was added thereto at 300 μL/well, and the plate was left standing at room temperature for 1 hour for blocking and washed five times with Tween 20-PBS (manufactured by Wako Pure Chemical Industries Ltd.). Next, the hybridoma culture supernatant was dispensed thereto as a test substance at 50 μL/well, and the plate was left standing at room temperature for 1 hour and then washed five times with Tween 20-PBS. Next, polyclonal goat anti-mouse immunoglobulins/HRP (Dako Denmark A/S, P0447) diluted 2000-fold with 1% BSA-PBS was dispensed thereto at 50 μL/well, and the plate was left standing at room temperature for 1 hour. The plate was washed five times with Tween 20-PBS, and TMB (manufactured by Sigma-Aldrich Co. LLC) was added thereto at 50 μL/well and reacted. At an appropriate point in time, the reaction was terminated by the addition of 1 N hydrochloric acid (manufactured by Wako Pure Chemical Industries Ltd.) at 50 μL/well. The absorbance at a sample wavelength of 450 nm and a reference wavelength of 570 nm (450 nm-570 nm) was measured using a plate reader (Spectra Max, manufactured by Molecular Devices, LLC).
The binding activity of the obtained antibodies against human protein S was measured in the same way as in Example 5(5). […] The secondary detection reagent used was Streptavidin HRP Conjugate (manufactured by R&D Systems, Inc.) diluted 200-fold with 1% BSA-PBS.

[3] = molecular target: T3, C-terminally FLAG-tagged human Gas6 recombinant protein (hGas6-F) (human, UniProt Q14393 31-678, gamma-carboxylated glutamic acid residues in the Gla domain (producer cells co-express rat VKOR and human GGCX); positions not given); assay: ELISA, Gas6-F captured by anti-FLAG, biotinylated antibody
T3 construct: also called human Gas6-F; human Gas6 protein
T3 sequence: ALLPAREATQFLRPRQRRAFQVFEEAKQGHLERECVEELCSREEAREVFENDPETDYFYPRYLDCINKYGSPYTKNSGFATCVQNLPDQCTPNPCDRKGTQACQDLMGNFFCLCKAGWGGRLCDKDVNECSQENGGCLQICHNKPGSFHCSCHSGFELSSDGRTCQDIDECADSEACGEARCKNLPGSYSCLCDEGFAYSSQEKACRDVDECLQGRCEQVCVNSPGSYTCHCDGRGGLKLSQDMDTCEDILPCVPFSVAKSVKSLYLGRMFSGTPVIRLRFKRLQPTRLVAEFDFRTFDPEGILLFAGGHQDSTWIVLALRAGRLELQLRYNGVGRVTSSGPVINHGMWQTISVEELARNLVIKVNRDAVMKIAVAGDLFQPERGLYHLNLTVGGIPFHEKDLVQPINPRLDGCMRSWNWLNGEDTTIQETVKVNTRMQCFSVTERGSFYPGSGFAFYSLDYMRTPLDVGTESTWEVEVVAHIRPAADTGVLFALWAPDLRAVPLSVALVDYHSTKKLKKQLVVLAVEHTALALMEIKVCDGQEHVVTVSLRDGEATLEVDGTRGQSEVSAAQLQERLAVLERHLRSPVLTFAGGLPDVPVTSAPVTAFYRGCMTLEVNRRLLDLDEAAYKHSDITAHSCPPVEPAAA
Procedure: After removal of the immobilization solution, 1% BSA-PBS (manufactured by Nacalai Tesque, Inc.) was added thereto at 300 μL/well, and the plate was left standing at room temperature for 1 hour for blocking and washed five times with Tween 20-PBS (manufactured by Wako Pure Chemical Industries Ltd.).
Each antibody solution was dispensed thereto at 50 μL/well, and the plate was left standing at room temperature for 1 hour. This plate was washed five times with Tween 20-PBS. Then, Streptavidin HRP Conjugate (manufactured by R&D Systems, Inc.) diluted 200-fold with 1% BSA-PBS was dispensed thereto at 50 μL/well, and the plate was left standing at room temperature for 1 hour. This plate was washed five times with Tween 20-PBS, and TMB (manufactured by Sigma-Aldrich Co. LLC) was added thereto at 50 μL/well and reacted. At an appropriate point in time, the reaction was terminated by the addition of 1 N hydrochloric acid (manufactured by Wako Pure Chemical Industries Ltd.) at 50 μL/well. The absorbance at a sample wavelength of 450 nm and a reference wavelength of 570 nm (450 nm-570 nm) was measured using a plate reader.

B1: anti-human Gas6 mouse-rat chimeric antibody KM5320-rKG1 (antibody, V domains shown)
VH: QIQLVQSGPELKKPGETVKISCKASGYTFTNYGMNWVKQAPGKGLKWMGWINTETGEPTYSDDFKGRFAFSLETSATTAYLQINNLRNEDMATYFCAREDGYYGTLDYWGQGTSVTVSS
VL: SIVMTQTPKFLLVSAGDRVTITCKASQSVSNDVAWYQQKPGQSPKVLIYYASNRYTGVPDRFTGSGYGTDFTFTISTVQAEDLAVYFCQQDYSSPWTFGGGTKLEIK
notes: 92 and 94 are not tied in words; also called KM5320-rKG1 antibody
- binding result [1]: no binding

B2: anti-human Gas6 mouse-rat chimeric antibody KM5321-rKG1 (antibody, V domains shown)
VH: QIQLVQSGPELKKPGETVKISCRASGYTFTNYGMNWVKQAPGKGLKWMGWINTNTGEPTYTEEFKGRFAFSLETSATTAYLQINDLKNEDTATYFCARDEGWFVYWGQGTLITVSA
VL: ETTVTQSPASLSVATGEKVTIRCITSTDIDDDMNWYQQKPGEPPKLLISEGNTLRPGVPSRFSSSGYGTDFVFTIENTLSEDVADYYCLQTDSVPLTFGAGTKLELK
notes: 96 and 98 are not tied in words; also called KM5321-rKG1 antibody
- binding result [1]: no binding

B3: CNTO antibody (anti-Gas6 monoclonal antibody WG1 of U.S. Pat. No. 7,547,767, remade) (antibody, V domains shown)
VH: QVQLVESGGGVVQPGRSLRLSCAASGFTFSSYGMHWVRQAPGKGLEWVAVIWYDGSNKYYADSVKGRFTISRDNSKNTLYLQMNSLRAEDTAMYFCAREGFYYDILTAYSLEYFQHWGQGTLVTVSS
VL: EIVLTQSPDFQSVTPKEKVTITCRASQSIGSSLHWYQQKPDQSPKLLIKYASQSFSGVPSRFSGSGSGTDFTLTINSLEAEDAAAYYCHQSSSLPYTFGQGTKLEIK
notes: Expressed from vector pKANTEX93 in CHO; also called CNT0300
- binding result [2]: no binding (tested: 5 µg/mL)
- antibody concentration at which binding activity was detected [3]: 0.04 µg/mL
- binding activity at 5 µg/mL against the largest activity of KM5320-mKG1 and KM5321-mKG1 [3]: < 0.5 fold

— patent US20180339041A1 (Kyowa Kirin, published 2018)
